According to patent US12291578B2, “Anti-matrix metalloproteinase 7 (MMP-7) inhibitory antibody and uses thereof” (Yeda Research and Development Co. Ltd., priority 2019, dated 2025):
“Also recorded” adds a separate entry of the source.

Experiments:
[1] = biological target: T1, MMP-7 zymogen (Homo sapiens, UniProt P09237); assay: Dot blot, zymogen; type: binding
T1 sequence (P09237 18-267 limits assumed): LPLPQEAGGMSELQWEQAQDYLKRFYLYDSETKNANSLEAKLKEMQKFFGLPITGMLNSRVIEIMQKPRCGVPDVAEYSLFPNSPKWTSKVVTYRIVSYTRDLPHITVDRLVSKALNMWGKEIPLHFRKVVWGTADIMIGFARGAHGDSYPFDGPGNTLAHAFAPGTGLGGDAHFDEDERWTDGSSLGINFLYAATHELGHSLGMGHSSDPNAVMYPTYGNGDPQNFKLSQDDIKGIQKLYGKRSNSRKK
Protocol: (§1) A dot blot was performed by immobilizing 1, 1.5 and 2 μg zymogen and activated MMP-7 recombinant enzyme on nitrocellulose membrane pre wetted with TBST using a vacuum based manifold 96 well dot-blot system (GE 10447900 Minifold dot blot). The blocking was performed for 1 hour at room temperature with 3% BSA in TBST. The membrane was then probed for binding by antibody eluted in the earlier step by incubating overnight. The anti MMP-7 mAb used was at 2 ug/ml concentration in TBST. The membrane after 3 washes in TBST was incubated with goat anti mouse HRP antibody and developed using ECL to determine the selectivity of binding towards catalytic form only.

[2] = system: RIP1-Tag2 insulinoma (PanNET) model; assay: Early stage treatment in RIP1-Tag2 (PanNET) mice; type: in vivo, mouse; conditions: 3 mg/kg every day IP; for area covered by CD34+ cells: islets undergoing angiogenesis
Excerpt: (§2) RIP1-Tag2: The RIP1Tag2 (RT2) murine PanNET model was developed by the fusion of Rat Insulin II promoter region to the SV40 early region that encodes the large T and small t antigens. Although oncogene expression begins during embryonic development (E8.5), the pancreatic islets initially have a normal anatomical and histological appearance (“normal” stage). Beginning at 4-5 weeks of age, hyperplastic and dysplastic islets begin to appear, rending 50% of all islets by 10 weeks of age. Angiogenic islets appear beginning around 6 weeks of age, and represent 10% of all islets at 10.5 weeks. Angiogenic islets are recognized by their dilated blood vessels and micro-hemorrhages. Tumors form beginning at 9-10 weeks and represent 2-4% of all the islets by 14 weeks. About half of the tumors at end stage evidence either focal or widespread invasion to the surrounding acinar tissue. RIP-Tag2 mice die at approximately 14 weeks of age primarily due to hyperinsulinemia.
GSM-192 treatment reduces occurrence of advanced tumor lesions in RIP1-Tag2 (PanNET) mice in early stage treatments: RIP1-Tag2 mice (n=15) in transition stage from hyperplastic to angiogenic stage spanning 6 to 8 weeks of age were treated with GSM-192 and GST control antibody at a concentration of 3 mg/kg every day intra peritoneal (IP). Animals at age 8 weeks post treatment was sacrificed and their pancreas was embedded in paraffin blocks and sectioned. Several sections in different depth in the tissue were made for subsequent histological analysis or immunofluorescence staining. Tumor sizes and staging was done in accordance with RIP1-Tag2 manual. […] As previously observed in in-vitro cell culture, the tissue was tested for differences in cell proliferation rate (with cell division marker Ki-67) and in cell apoptosis rate (with effector apoptotic marker Caspase-3).

[3] = system: RIP1-Tag2 insulinoma (PanNET) model; assay: Late stage treatment in RIP1-Tag2 (PanNET) mice; type: in vivo, mouse; conditions: age 10 to 12 weeks, 5 mg/kg every other day IP
Excerpt: as §2
The tumor volume was measured using x, y and z dimensions from a caliper scale.

[4] = system: CFPAC-1 cells; assay: Trans-well migration assay; type: cell-based, human; conditions: 15 h post treatment, sub-lethal concentrations
Protocol: Trans-well migration assay: Cells were starved overnight in assay media (IMDM media containing only 1% serum). Cells (1×10^5) were added to the top chambers of 24-well transwell plates (BD Biosciences; 8 μm pore size), and assay media, with or without GSM-192, was added to both chambers. […] The numbers of cells in five fields were counted under 20× magnification, and the mean for each chamber determined.
(§3) GSM-192 Fab reduces cell motility in vitro: MMP-7 mediated E-Cadherin cleavage promotes cell migration^19, so it was hypothesized that an effective anti MMP-7 antibody directed to the activated enzyme should be able to impact migration.

[5] = biological target: MMP-14 (Homo sapiens, UniProt P50281); assay: ELISA binding, cross-reactivity
[6] = biological target: MMP-12 (Homo sapiens, UniProt P39900); assay: ELISA binding, cross-reactivity
Chain of MMP-12 (P39900 106-470): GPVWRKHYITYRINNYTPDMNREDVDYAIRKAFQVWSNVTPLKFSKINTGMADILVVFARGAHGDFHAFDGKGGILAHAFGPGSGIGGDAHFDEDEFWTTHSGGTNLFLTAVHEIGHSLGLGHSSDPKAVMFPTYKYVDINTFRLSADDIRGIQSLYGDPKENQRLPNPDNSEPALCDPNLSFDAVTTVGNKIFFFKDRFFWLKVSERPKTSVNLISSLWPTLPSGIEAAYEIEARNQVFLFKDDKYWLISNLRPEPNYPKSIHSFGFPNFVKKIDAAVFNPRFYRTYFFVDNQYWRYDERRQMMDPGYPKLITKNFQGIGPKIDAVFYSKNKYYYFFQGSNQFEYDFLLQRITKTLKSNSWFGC

[7] = system: CFPAC-1 cells; assay: Wound healing assay (scratch assay); type: cell-based, human; conditions: 7 hours post treatment, vs control antibody GST
Protocol: Wound Healing Assay (Scratch Assay): The migratory behavior of cells was assayed by means of a wound-healing assay using a culture-insert (ibidi GmbH, Am Klopferspitz 19, Martinsried, Germany) according to the manufacturer's instruction. After 24 h the culture-inserts were removed leaving a cell-free gap (“defined as a wound”) of approx. 500 μm. The migration rate into this “wound area” was documented and measured using Carl Zeiss microscope (DeltaVision Microscopy Imaging Systems—GE Healthcare Life Sciences, USA). The migration rate was determined by percentage area covered by cells. Each analysis was performed in triplicates and was repeated two times.
as §3

[8] = system: panel of other MMPs; assay: ELISA binding, panel of other MMPs
Protocol: MMP-7 Elisa binding assay: A 96-well plate (Nunc) was coated with MMP at […]. After coating, the plate was incubated with the GSM-192 at 25° C. for 1 h. The bound Fab fragment/full length was detected using a goat anti-Fab/anti-mouse antibody followed by peroxidase-conjugated bovine anti-goat antibody according to standard procedures. A four-parametric sigmoidal curve-fitting analysis was used to calculate the half-maximal effective concentration.

[9] = system: RIP1-Tag2 mice serum (circulating MMP); assay: Dot blot with RIP1-Tag2 mice serum; type: binding, mouse; conditions: serum of RIP1-Tag2 mice with late stage insulinomas, 335 times the protein of pure MMP-7 control
Protocol: as §1
Serum isolated from RIP1-Tag2 mice with late stage insulinomas were used to determine if anti MMP-7 mAb would be bound and removed by circulating enzyme. […] The total serum protein loaded for this experiment was 335 times the protein concentration used for pure MMP-7 catalytic control.

[10] = biological target: MMP-13 (Homo sapiens, UniProt P45452); assay: ELISA binding, cross-reactivity
[11] = 6 to 8 weeks of age, listed as anti MMP-7 mAb

B1: GSM-192: monoclonal antibody to MMP-7 binding the catalytic domain, not the zymogen; VL SEQ ID NO: 1, VH SEQ ID NO: 2 (antibody, V domains shown)
VH: EVQLQQSGPELVKPGASVKIPCKASGYTFTDYNMDWMKQSHGKSLEWIGHINPNNGGTFYNQKFKDKATFIVDKSSNTAYMELRSLTSEDTAVYFCARGGGLRRGPFAYWGQGTLVTVS
VL: DIVTQSPASLAVSLGQRATISCRASESFDSYGNTFVHWYQQKPGQPPKLLIYLVSNLESGVPAGFRGRGSRTDFTLTIDPVEADDAATYYCQQNNEDPYTFGGGTKLEIKRA
modifications: GSM-192 Heavy Chain Sequence; GSM-192 Light Chain Sequence
[1]
  binding to zymogen form of MMP-7: not the zymogen form; also recorded: did not bind
[2]; 6 to 8 weeks of age
  number of Caspase-3 positive cells (apoptosis): No significant change
  number of Ki-67 positive cells (cell proliferation): No significant change
[2]; [11]
  number of Caspase-3 positive cells (apoptosis): does not show significant difference
  number of Ki-67 positive cells (cell proliferation): does not show significant difference
[2]; 6 to 8 weeks of age, vs GST control antibody
  number of angiogenic islets / fraction of islets advancing to post angiogenic lesions: reduced almost by half; also recorded: half of the total seen in control mice
[2]
  area covered by CD34+ cells: less abundant
[2]; listed as anti MMP-7 mAb
  area covered by CD34+ cells: reduces the area covered by CD34+ cells
[3]
  tumor volume relative to control group: less than half
[4]
  cells migrating across the transwell membrane: almost by half; also recorded: reduces cells migrating across the transwell membrane significantly
[5]
  crossreactivity to MMP-14: did not show crossreactivity
[6]
  crossreactivity to MMP-12: did not show crossreactivity
[7]
  cell migration / rate of wound closure: significant reduction in rate of wound closure; also recorded: slowed down cell migration
[8]
  binding to a panel of other MMPs: did not bind effectively
[9]; listed as Anti MMP-7mAb
  binding to total serum proteins: does not bind
[9]; listed as anti MMP-7 mAb
  binding to total serum proteins: did not show any binding
[10]
  crossreactivity to MMP-13: did not show crossreactivity
